Laboratory results published in US20230257473A1 (TENEOBIO, published 2023).

B1: anti-BCMA heavy chain-only antibody (UniAb) with the VH of SEQ ID NO: 12 (antibody, V domains shown)
VH: QVQLVESGGGLVQPGGSLRLSCVASGFTFSSNAMSWVRQAPGKGLEWVSAISGSGDYTHYSDSVKGRFTISRDNSKNTLYLQMNSLRAEDTAVYYCAKEVPGGPLVDFDSRGQGTLVTVSS
notes: Heavy chain-only antibody from UniRat; also called Clone ID No: 316302
B2: AntiX**BCMA_F7E_F7E (bispecific antibody, part only; not given: other chains of three-chain format, not shown: another chain or arm of the molecule)
tandem VH: QVQLVESGGGLVQPGGSLRLSCVASGFTFSSNAMSWVRQAPGKGLEWVSAISGSGDYTHYSDSVKGRFTISRDNSKNTLYLQMNSLRAEDTAVYYCAKEVPGGPLVDFDSRGQGTLVTVSSGGGGSGGGGSQVQLVESGGGLVQPGGSLRLSCVASGFTFSSNAMSWVRQAPGKGLEWVSAISGSGDYTHYSDSVKGRFTISRDNSKNTLYLQMNSLRAEDTAVYYCAKEVPGGPLVDFDSRGQGTLVTVSS

Key:
[1] = molecular target: recombinant BCMA (R&D Systems, catalog no. 193-BC) (human) (UniProt Q02223); assay: competitive ELISA, plate-bound BCMA; Ab 0.020 ng/mL; competitor APRIL 7.81 ng/mL
Chain of recombinant BCMA (R&D Systems, catalog no. 193-BC) (human) (Q02223 5-51 limits assumed): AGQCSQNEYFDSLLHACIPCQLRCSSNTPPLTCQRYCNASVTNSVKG

[2] = molecular target: recombinant BCMA (R&D Systems, catalog no. 193-BC) (human) (UniProt Q02223); assay: competitive ELISA, plate-bound BCMA; Ab 200.000 ng/mL; competitor APRIL 62.50 ng/mL
[3] = molecular target: recombinant BCMA (R&D Systems, catalog no. 193-BC) (human) (UniProt Q02223); assay: competitive ELISA, plate-bound BCMA; Ab 20.000 ng/mL; competitor APRIL 500.00 ng/mL
[4] = molecular target: recombinant BCMA (R&D Systems, catalog no. 193-BC) (human) (UniProt Q02223); assay: competitive ELISA, plate-bound BCMA; Ab 2.000 ng/mL; competitor APRIL 31.25 ng/mL
[5] = molecular target: BCMA on BCMA-expressing cells (H929 / NCI-H929, MM1.S, U266, Daudi) (human) (UniProt Q02223); assay: flow cytometry on H929 cells; antibody 0.195 ng/ml
Chain of BCMA on BCMA-expressing cells (H929 / NCI-H929, MM1.S, U266, Daudi) (human) (Q02223 whole entry): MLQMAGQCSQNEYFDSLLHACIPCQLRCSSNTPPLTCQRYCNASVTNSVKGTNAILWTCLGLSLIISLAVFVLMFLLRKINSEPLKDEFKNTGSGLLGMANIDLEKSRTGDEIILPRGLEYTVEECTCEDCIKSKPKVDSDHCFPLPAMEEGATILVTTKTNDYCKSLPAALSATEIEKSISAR

[6] = molecular target: BCMA on BCMA-expressing cells (H929 / NCI-H929, MM1.S, U266, Daudi) (human) (UniProt Q02223); assay: flow cytometry on MM1.S cells; antibody 0.195 ng/ml
[7] = molecular target: BCMA on BCMA-expressing cells (H929 / NCI-H929, MM1.S, U266, Daudi) (human) (UniProt Q02223); assay: flow cytometry on MM1.S cells; antibody 0.781 ng/ml
[8] = molecular target: BCMA on BCMA-expressing cells (H929 / NCI-H929, MM1.S, U266, Daudi) (human) (UniProt Q02223); assay: flow cytometry on H929 cells; antibody 0.781 ng/ml
[9] = molecular target: BCMA on BCMA-expressing cells (H929 / NCI-H929, MM1.S, U266, Daudi) (human) (UniProt Q02223); assay: flow cytometry on H929 cells; antibody 25.000 ng/ml
[10] = molecular target: recombinant BCMA (R&D Systems, catalog no. 193-BC) (human) (UniProt Q02223); assay: competitive ELISA, plate-bound BCMA; Ab 20.000 ng/mL; competitor APRIL 15.63 ng/mL
[11] = molecular target: BCMA on BCMA-expressing cells (H929 / NCI-H929, MM1.S, U266, Daudi) (human) (UniProt Q02223); assay: flow cytometry on H929 cells; antibody 0.000 ng/ml (background)
[12] = molecular target: recombinant BCMA (R&D Systems, catalog no. 193-BC) (human) (UniProt Q02223); assay: competitive ELISA, plate-bound BCMA; Ab 2.000 ng/mL; competitor APRIL 7.81 ng/mL
[13] = molecular target: recombinant BCMA (R&D Systems, catalog no. 193-BC) (human) (UniProt Q02223); assay: competitive ELISA, plate-bound BCMA; Ab 0.002 ng/mL; competitor APRIL 250.00 ng/mL
[14] = molecular target: recombinant BCMA (R&D Systems, catalog no. 193-BC) (human) (UniProt Q02223); assay: competitive ELISA, plate-bound BCMA; Ab 0.200 ng/mL; competitor APRIL 7.81 ng/mL
[15] = molecular target: recombinant BCMA (R&D Systems, catalog no. 193-BC) (human) (UniProt Q02223); assay: competitive ELISA, plate-bound BCMA; Ab 200.000 ng/mL; competitor APRIL 31.25 ng/mL
[16] = molecular target: recombinant BCMA (R&D Systems, catalog no. 193-BC) (human) (UniProt Q02223); assay: competitive ELISA, plate-bound BCMA; Ab 2.000 ng/mL; competitor APRIL 500.00 ng/mL
[17] = molecular target: recombinant BCMA (R&D Systems, catalog no. 193-BC) (human) (UniProt Q02223); assay: competitive ELISA, plate-bound BCMA; Ab 0.020 ng/mL; competitor APRIL 125.00 ng/mL
[18] = molecular target: recombinant BCMA (R&D Systems, catalog no. 193-BC) (human) (UniProt Q02223); assay: competitive ELISA, plate-bound BCMA; Ab 2.000 ng/mL; competitor APRIL 0.00 ng/mL
[19] = molecular target: BCMA on BCMA-expressing cells (H929 / NCI-H929, MM1.S, U266, Daudi) (human) (UniProt Q02223); assay: flow cytometry on H929 cells; antibody 100.000 ng/ml
[20] = molecular target: recombinant BCMA (R&D Systems, catalog no. 193-BC) (human) (UniProt Q02223); assay: competitive ELISA, plate-bound BCMA; Ab 0.002 ng/mL; competitor APRIL 15.63 ng/mL
[21] = molecular target: recombinant BCMA (R&D Systems, catalog no. 193-BC) (human) (UniProt Q02223); assay: competitive ELISA, plate-bound BCMA; Ab 2.000 ng/mL; competitor APRIL 125.00 ng/mL
[22] = molecular target: BCMA on BCMA-expressing cells (H929 / NCI-H929, MM1.S, U266, Daudi) (human) (UniProt Q02223); assay: flow cytometry on H929 cells; antibody 6.250 ng/ml
[23] = molecular target: recombinant BCMA (R&D Systems, catalog no. 193-BC) (human) (UniProt Q02223); assay: competitive ELISA, plate-bound BCMA; Ab 200.000 ng/mL; competitor APRIL 0.00 ng/mL
[24] = molecular target: recombinant BCMA (R&D Systems, catalog no. 193-BC) (human) (UniProt Q02223); assay: competitive ELISA, plate-bound BCMA; Ab 200.000 ng/mL; competitor APRIL 7.81 ng/mL
[25] = molecular target: recombinant BCMA (R&D Systems, catalog no. 193-BC) (human) (UniProt Q02223); assay: competitive ELISA, plate-bound BCMA; Ab 0.020 ng/mL; competitor APRIL 250.00 ng/mL
[26] = molecular target: recombinant BCMA (R&D Systems, catalog no. 193-BC) (human) (UniProt Q02223); assay: competitive ELISA, plate-bound BCMA; Ab 0.200 ng/mL; competitor APRIL 15.63 ng/mL

| Binder | A450-A570 [1] | A450-A570 [2] | A450-A570 [3] | A450-A570 [4] | MFI [5] | MFI [6] | MFI [7] | MFI [8] | MFI [9] | A450-A570 [10] | MFI [11] | A450-A570 [12] | A450-A570 [13] | A450-A570 [14] | A450-A570 [15] | A450-A570 [16] | A450-A570 [17] | A450-A570 [18] | MFI [19] | A450-A570 [20] | also measured |
| --- | --- | --- | --- | --- | --- | --- | --- | --- | --- | --- | --- | --- | --- | --- | --- | --- | --- | --- | --- | --- | --- |
| B1 | 0.0631 | 2.07 | 0.112 | 0.0875 | 5030 | 2070 | 2060 | 5060 | 5480 | 0.482 | 5000 | 0.0895 | 0.0647 | 0.0643 | 2.29 | 0.0711 | 0.064 | 0.0894 | 7560 | 0.0607 | A450-A570 [21]: 0.0736; MFI [22]: 5240; A450-A570 [23]: 2.44; A450-A570 [24]: 2.51; A450-A570 [25]: 0.0617; A450-A570 [26]: 0.0661 |
| B2 | 0.0578 | 2.44 | 0.253 | 0.121 | 5010 | 2010 | 2010 | 5020 | 6610 | 0.778 | 5000 | 0.108 | 0.0607 | 0.0577 | 2.42 | 0.0732 | 0.0557 | 0.107 | 20900 | 0.062 | A450-A570 [21]: 0.108; MFI [22]: 5220; A450-A570 [23]: 2.47; A450-A570 [24]: 2.47; A450-A570 [25]: 0.0618; A450-A570 [26]: 0.0587 |
